Source: publication PMC7642679

Legend:
Experiment in all cases: SEC
[1] = target: spike-6P with the D614G substitution (SARS-CoV-2)
[2] = target: spike-6P D614G with the RBD replacement A522V (SARS-CoV-2)
[3] = target: spike-6P (HexaPro) SARS-CoV-2 spike protein construct (SARS-CoV-2)
[4] = target: spike-6P D614G with the RBD replacement E484Q (SARS-CoV-2)
[5] = target: spike-6P D614G with the RBD replacement A419V (SARS-CoV-2)
[6] = target: spike-6P D614G with the RBD replacement F338L (SARS-CoV-2)
[7] = target: spike-6P D614G with the RBD replacement R408T (SARS-CoV-2)
[8] = target: spike-6P D614G with the RBD replacement S373P (SARS-CoV-2)
[9] = target: spike-6P D614G with the RBD replacement G446V (SARS-CoV-2)

spike-6P with the D614G substitution
stoichiometry N [1]: 3

spike-6P D614G with the RBD replacement A522V
stoichiometry N [2]: 3

spike-6P (HexaPro) SARS-CoV-2 spike protein construct
stoichiometry N [3]: 3

spike-6P D614G with the RBD replacement E484Q
stoichiometry N [4]: 3

spike-6P D614G with the RBD replacement A419V
stoichiometry N [5]: 3

spike-6P D614G with the RBD replacement F338L
stoichiometry N [6]: 3

spike-6P D614G with the RBD replacement R408T
stoichiometry N [7]: 3

spike-6P D614G with the RBD replacement S373P
stoichiometry N [8]: 3

spike-6P D614G with the RBD replacement G446V
stoichiometry N [9]: 3
